The text below walks through data of paper PMC9817077, “Simple, Reliable Protocol for High-Yield Solubilization of Seedless Amyloid-β Monomer” (ACS Chemical Neuroscience, 2022).

Data set [1] in a line: Removal of HMW material by ultracentrifugation, AF4-MALS and ThT. Format: physicochemical. The conditions noted are these: for integrated HMW UV signal after cross-flow, equivalent mass of Aβ(1-42): 200 µl injected. On the procedure: 4 S3 Removal of HMW material from 50 mM NaOH Aβ
5 preparations by ultracentrifugation
8 that attempts to remove any putative seed or oligomers had no impact on the self-assembly 9 kinetics. To complement this, and further explore the nature of the HMW contaminant that 10 eluted after cross-ﬂow in AF4 runs, we removed the HMW material by ultracentrifugation 11 and examined the eﬀect on the self-assembly kinetics. Firstly, an Aβ(1-42) sample was re-12 solubilized to a concentration of 1 mg/ml peptide by sonication for 5 min in 50 mM NaOH.
14 NaOH, centrifuged at 436,000g for 1 h, and examined by AF4-MALS and ThT assays. The 15 dilution was carried out to obtain a suﬃciently large volume for ultracentrifugation. As a 16 control, another aliquot from the same re-solubilized sample was diluted in the same manner, 17 and incubated in a centrifuge tube for the same period of time without ultracentrifugation.
18 Both samples were kept at 21 °C during ultracentrifugation/incubation. For the AF4-MALS 19 experiments, a larger-than-usual injection volume of 200 µl was used to ensure the same mass […]
21 the elugram. For the ThT assays, the buﬀer was pre-adjusted to account for the increased […]
24 the integral of the UV signal after cross-ﬂow; in the control, the integrated HMW signal was […]
26 so the true mass is unknown), whereas in the centrifuged sample the integral was equivalent […]
Similarly, ultracentrifugation caused an approximately 4× reduction
28 in the integral of the LS 90o signal. Although the composition and degree of homogeneity of […]
30 that the majority of this material was removed. Despite removal of this material, the treated […]
One possibility is that the HMW fraction
However, the fact that the full expected 20 µg of
Instead, it may consist of small quantities of dust
36 or pre-existing contaminants in the vials, which were resistant to 50 mM NaOH but had no 37 observable seeding potential. […]
the self-assembly kinetics. Panels show (a) the UV280 signal, (b) the LS 90o signal, (c) the approximate Mw distribution, derived from MALS analysis of the ROI from 3.3-12.0 min using a linear Zimm ﬁtting approach, and (d) the corresponding ThT self-assembly kinetics […]
Color scheme: red, 1 mg/ml sample before dilution (not included in ThT assay); green, 10× diluted 0.1 mg/ml sample, incubated for 1 h before use in experiments; blue, 10× diluted 0.1 mg/ml sample, centrifuged at 436,000g for 1 h and then used in experiments.
(1 picture or pasted object on this page, not shown here)

Data set [2] can be described thus: Storage stability at −80 °C (ThT half-time against storage time). Format: physicochemical. The source says:
To more quantitatively assess this stability, the mean fibrillization half-time τhalf of each ThT experiment was plotted against the storage time of the corresponding aliquot.
Each point corresponds to the average fibrillization half-time of a single ThT experiment; the error bars, which in some cases are too small to show, represent a single standard deviation. The fitted curve is an exponential decay of the form τhalf = τhalf^′e^–kmodt, where τhalf is the self-assembly half-time, τhalf^′ is the half-time prior to the effects of storage, kmod is the proportional rate of change of τhalf during storage, and t is the storage time. See text for values of the fitted parameters and Table S2 for the correspondence between the color scheme and sample ID.

Data set [3] in a line: Negative-stain electron microscopy (NS-EM). The note with it: 4 μM. Format: physicochemical. On the procedure: To perform a further test for the presence of seeds, and determine whether the detected oligomers affected the self-assembly kinetics, Aβ(1-42) samples were purified by SEC, and their self-assembly kinetics were compared to those of unpurified samples. In summary, following the protocol used by Hellstrand et al.,[39] […] The fraction eluting from 13.6 to 14.6 min (at 1 mL/min) was collected on ice, diluted variably (60, 80, or 100%, i.e., undiluted) in the elution buffer to give a range of concentrations, supplemented with ThT from a concentrated stock, and used in ThT assays. This purification procedure was repeated several times with reproducible results, and a representative elugram is shown in Figure 6a. The UV absorbance and RI elugrams are very similar to those previously reported for in-house recombinant peptide purified according to the same protocol,[39] and the peak at ∼14 min has already been identified as the monomer. […]
The resulting sample was deposited on grids immediately, or after incubation for 1 h in a 96-well plate treated with a PEG-like low-binding surface (Corning 3881, NY), at 37 °C. […] Micrographs were recorded with a 1024 × 1024 px Gatan CCD camera, and images were analyzed using FIJI.[100],[101]

For data set [4] the following is noted: fluorescence-based assays, cited from earlier work. On the procedure: Aβ samples that are stored in a lyophilized form are often re-solubilized by treatment with a dilute base such as 1–10 mM NaOH or 0.02–1% NH4OH.[41],[46],[48],[53],[56],[57] These treatments would be expected to give a pH of 10.6–12.0, in the absence of any partial neutralization of the solvent. […] In addition, many st ...

The mark [5] stands for this setting: 436,000g for 1 h against control.

“Aβ(1-42): Ultrapure recombinant Aβ(1-42) purchased from rPeptide, lyophilized from HFIP; disordered amyloid-forming peptide”: the “integrated HMW UV signal after cross-flow, equivalent mass of Aβ(1-42)” value stood at 0.365 µg in data set [1] (0.1 mg/ml in 5 mM NaOH, centrifuged at 436,000g for 1 h, 21 °C) and 1.004 µg in data set [1] (control: 10× diluted to 0.1 mg/ml in 5 mM NaOH, incubated 1 h at 21 °C without ultracentrifugation). Moreover, the “reduction in the integral of the LS 90° signal by ultracentrifugation” value in data set [1] (setting [5]) is recorded as “approximately 4 ×”. The “reduction in the integral of the UV signal after cross-flow by ultracentrifugation” value in data set [1] (setting [5]) was “approximately 3 ×”. Moreover, the “period of stability at −80 °C” value in data set [2] (5 min sonication in 50 mM NaOH, frozen in liquid N2) is recorded as “over 39 days”. Also, the “rate constant kmod of decay of the self-assembly half-time during storage” value in data set [2] (5 min sonication in 50 mM NaOH, stored at −80 °C for 1 to 39 days, exponential fit, not significantly different from 0 (P = 0.3011)) is on record as 6.53 × 10^–4 day^–1. For the same substance, in data set [2] (storage at −80 °C, from exponential fit), the “time constant τmod” value was found to be 1530 days. The “fibrillar species by NS-EM immediately after dilution” value in data set [3] (50 mM NaOH sample diluted into pre-adjusted fibrillization buffer pH 8) is listed as “did not reveal any fibrillar species”. Further, the “fibrillar species by NS-EM after incubation” value in data set [3] (∼1 h under fibrillization conditions, 37 °C, early growth phase) is “fibrils were observed”. In data set [4], the “pH threshold for complete elimination of self-assembly” value is 11.0–12.0 pH. The “approximate timescale of limited aggregation” value in data set [4] (pH 11.0) was “several hundred seconds”.
